From the nanobody polyreactivity screen of Harvey et al. (2022)

Experiment: yeast display, Sf9 membrane polyspecificity reagent, FACS + sequencing; frameworks hold sequencing errors
Summary of the method: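 Galactose induction of a Saccharomyces cerevisiae BJ5465 synthetic nanobody display library ran 36–48 hours. The cells were then stained for 1 hour at 4 °C with 10% biotinylated, detergent-solubilized Sf9 membrane reagent, pulled down on streptavidin microbeads and FACS-sorted into low and high (top ~1%) gates on expression and reagent-binding fluorescence. Labels for polyreactivity follow the gate of origin.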

## QVQLVESGGGLVQAGGSLRLSCAASGFTFVYYAMGWYRQAPGKEREFVATISSRGDSTYYADSVKGRFTISRDNAKNTVYLQMNSLKPEDTAVYYCAADYDRKTRYGYLGQGTQVTVSS
  polyreactivity (PSR sort gate): low polyreactivity

## QVLLQESGGRLVQAGGSLRLGCEPSGTISPAYYMGRYHQAPGKEREFVAAITYGTNTYYADSVKGRCTISRDIAKNTVYLQMNSLKPEDSAVYYCSATAGYNGAHDYCGQGTQVTVSS
  polyreactivity (PSR sort gate): low polyreactivity

## QVQLVESGGGLVQAGGSLRLSCAASGSTFNDNAMGWYRPAPGKERELVAAIRWSGGSTYYADSVKGRFTISRDNAKNTVYLQMNSLKPEDTAVYYCAASRRYYLTYRYYYWGQGTQVTVSS
  polyreactivity (PSR sort gate): high polyreactivity

## QVKLVESGGGLFQAGGSLRLSCAASGITFTFNAMGWYRQAPGKERELVAAITWSGGSTFYADSVKGRFTISRDNAKNTVYLQMNSLKPEDTAVYYCARDTELYVRWLDYWGQGTQVTVSS
  polyreactivity (PSR sort gate): low polyreactivity

## QVQLVESGGGLVQAGGSLRLSCAASGRTFGVYAMGWYRQAPGKERELVAAISRRAGNTYYADSVKGRFTISRDNAKNTVYLQMNSLKPEDTAVYYCAADFSRQYGYWGQGTQVTVSS
  polyreactivity (PSR sort gate): high polyreactivity

## QVQLVESGGGLLQAGGSLRLSCAASGSTFRGNALGWYRQAPGKVRELVAAINSSGGRTYYADSVKGRFTISRDNAKNTVYLQMNSLKPEDTAVNYCAARGRRTGDYDYWGQGTQVTVSS
  polyreactivity (PSR sort gate): high polyreactivity

## QVQLVESGGGLVQAGGSLRLSCAASGFTFSLYAMGWYRQAPGKERELVASISSRGGSTYYADSVKGRFTISRDNAKNTVYLQMNSLKPEDTAVYYCNAGSVTRAWWGYWPFNYWGQGTQVTVSS
  polyreactivity (PSR sort gate): low polyreactivity

## QVQLVESGGGLVQAGGSLRLTCAASGLILVPNTMGWYRQAPGTERELVAAISYSGGGTYYADSVKGRFTISRDNAKNTVYLQMNSLKPEDTAVYYCAAYVKRESAPYGYWGQGTQVTVSS
  polyreactivity (PSR sort gate): low polyreactivity

## QVQLVESGGGLVQAGGSLRLSCAASGSTYTGYTMGWYRQAPGKERELVAAITYRGGSTYYADSVKGRITISRDNAKNTVYLQMNSLKREDTEVYYCAARSFFIMYYWGQGTQVTVSS
  polyreactivity (PSR sort gate): low polyreactivity

## QVQLVESGGGLVQAGGSLRLSCAASGSIFPSYAMGWYRQAPRKERELVATIGRGGTTNYADSVKGRFTISRDNAKNTVYLQMNSLKPEDTAVYSCNAERIWRYKDGYDYWGQGTQVTVSS
  polyreactivity (PSR sort gate): high polyreactivity

## QVQHVESGGGLVQAGGSHRLSCAASGRTFDTNDMGWYRQPPGKERELVAVITARGGNTSYADSVKGRFTISRDNAKNPVYLQMNSLKPEDTAVYYCAAESQSTSYGLDYWGQGTQVTVSS
  polyreactivity (PSR sort gate): low polyreactivity

## QVQLVESGGGLVQAGGSLRLSCAASGFISTINVMGWYRQAPGKERELVAAITYIDGSTFYADSVKGRFTISRDNAKNTVYLQMNSLKPEDTAVYYCAADLYQWGAVFLYVRSTGLDYWGQGTQVTVSS
  polyreactivity (PSR sort gate): low polyreactivity

## QVQLVESGGGLVQAGGSLRLSCAASGRTFTPNAMGGYRQAPGKERELVAAIDWRGGRTYYADSVKGRFTISRDNAKNTVYLQMNSLKPEDSAVYYCAARVDGYHYKSAGYSYGVYYWGQGTQVTVSS
  polyreactivity (PSR sort gate): low polyreactivity

## QVQLVESGGGLVQAGGSLRLSCAASGSIFYAYAMGWYTQAPGKERELVATISSVGSTYYADSVKGRFTISRDNAKNTVYLQMNSLKPEDTAVYYCAKQRIVVYKTGYDYWGQGTQVTVSS
  polyreactivity (PSR sort gate): low polyreactivity

## QVQLVESGGGLVQAGGSLRLSCAASGITFVHNVMGWYRQAPGKERELVAAINSGGRTYYADSVKGRFTISRDNAKNTVYLQMNSLKPEDTAVYYCAALGDKRGGGNYWGQGTQVTVSS
  polyreactivity (PSR sort gate): high polyreactivity

## QVQLVESGGGLVQAGGSLRLSCAASGSTFRYYVMGWYRQAPRKERELVAGISYRGGTTYYADSVKGRFSISRDNAKNTVYLQMNSLKPEDTAVYYCAADSTPYVLSGNYDYWGQGPQVTVSS
  polyreactivity (PSR sort gate): low polyreactivity

## QVQLVESGGGLVQAGGSLRLSCAASGSIFDVNAMGWYRQAPGKERELVAAISDSGGSTYYADSVKGRYTISRDNAKNTVYLQMNSLKPEDTAVYYCNADWSWYNYYDFDYWGQGTQVTVSS
  polyreactivity (PSR sort gate): low polyreactivity

## QVQLVESGGGLVQAGGSLRVSCAASGSNFPRYAMGWYRQAPGKERELVAAISGRGGSTYYADSVKGRFTISRDNAKNTVYLQMNSLKPEDTAVYYCNAVGHTSIRRALDILDYWGQGTQVTVSS
  polyreactivity (PSR sort gate): high polyreactivity

## QVQLVESGGGLVQAGGSLRLSCAASGSTFSIYAMGWYRQAPGKERELVADITANGGSTYYADSVKGRFTISRDNAKNTVYLPMNSLKPEDTAVYYCAADAKSFDAVHYDYWGQGTHVTVSS
  polyreactivity (PSR sort gate): low polyreactivity

## QVQLVESGGGLGQAGGSLRLSCAASGRILKYYDMGWYRQAPGKERELVAAISVSGTSTYYADSVKGRFTISRDNAKNTVYLQMNSLKPEDTAVYYCATATGRYSFDYWGQGAQVTVSS
  polyreactivity (PSR sort gate): low polyreactivity

## QVQLVESGGGLVQAGGSLRLSCAASGRTFVYYAMGWYRQAPGKERELVARISSGGSTYYADSVKGRFTISRDNAKNTVYLQMYSLKPEDTAVYYCAADAWYVWEYWWQPEDDYWGQGSQVTVSS
  polyreactivity (PSR sort gate): high polyreactivity

## QVQLVESGGGLVQAGGSLRLSCAASGRIFKRNAMGWYRQAPGKERELVAAINWSGGSTYYADSVKGRFTISRDNAKNTVYLQMNSLKPEDTAVYYCAALRVQGDYDYWGQGTQVTVSS
  polyreactivity (PSR sort gate): high polyreactivity

## QVQLVESGGGLVQAGGSLRLTCAASGSTFYSYVMGWYRQAPGKERELVAAIDYSGDSTYYADSVKGRFTISRDNAKNTVYLQMNSLKPEDTAVYYCAKDGVWYYSGTGMDYWGHGTQVTVSS
  polyreactivity (PSR sort gate): low polyreactivity

## QVQLVESGGGLVQAGGSLRLSCAASGSLFYINAMGWYRQAPGKERELVAAITSDGSTYYADSVKGRFTISRDNAKNTVYLQMNSLKPEDTAVYYCAADLTSDQYLYYWYWFYSWGQGTQVTVSS
  polyreactivity (PSR sort gate): low polyreactivity

## QVQLVESGGGLVQAGGSLRLSCAASGSIFQRYAMGWYRQAPGKERECVAAISGRGGSTYYADSVKGRFTISRDNAKNTVYLQMNSLKPEDTAVYYCAADSSRFYGRPRYYYWGQGTQVTVSS
  polyreactivity (PSR sort gate): high polyreactivity

## QVQIVESGGGLVQAGGSLRLSCPASGGIFTKNAMGWYRQAPGKERELVAGISRTGGNTYYADSVKGRFTISRDNAKNNVYLQMKSLKPEDTAVYYCKALYGGPHRLRYDYWGQGTQVTVSS
  polyreactivity (PSR sort gate): low polyreactivity

## QVQLVESGGGLVQAGGSLRLSCAASGGTFGSNAMGWYRQAPGKERELVARISGRGGRTYYADSVKGRFTISRDNAKNTVYLQMNSLKPEDTAVYYCAATYIIWGQGTQVNVSS
  polyreactivity (PSR sort gate): high polyreactivity

## QVQLVESGGGLVQAGGSLRLSCAASGRIFARNAMGWYRQAPGKERELVADITSTGSTNYADSVKGRFTISRDNAMNTVYLQMNSLKPEDTAVYYCAADYYTGYVWEDYYWGQGTQVTVSS
  polyreactivity (PSR sort gate): low polyreactivity

## QVQLVESGAGLVQAGGSLRLSCAASGRTFDSNAMGWYRQAPGKEREFFASIRWTVTSTYYADSVKGRFTISRDNAKNTVYLQMNSLKPEDTAVYYCNAEDYYYVGRSDYWGQGTQVTVSS
  polyreactivity (PSR sort gate): low polyreactivity

## QVQLVESGGGLVQAGGSLRLSCAASGITFSGNTMGWYRQAPGKERELVAAISSGGSTYYADSVKGRFTISRDNAKNTVLLQMNSLKPEDTAVYYCNADIYYAPYDYWGQGTQVTVSS
  polyreactivity (PSR sort gate): low polyreactivity

## QVQLVESGGGLVQAGGSLRLSCSASGTISGLYAMGWYRQATGKERELVARIRWRGDSTYYADSVKGRFTISRDNAKNTVYLQMNSLNPEDTAVFYCAASAYSGKVNKYNYWGQGTQVTVSS
  polyreactivity (PSR sort gate): high polyreactivity

## QVQLVESGGGLVQAGGSLRLSCAASGSIFRYNAMGWSRQAPGKEREFVAAISYSGGRTYYADSVKGRFTISRDNAKNTVYLQMNSLNPEDTAVYYCNAQYASGRSYFFYWHRYDYWGQGTQVTVSS
  polyreactivity (PSR sort gate): high polyreactivity
